According to US20240294640A1 (published 2024):
Read-outs that look alike come from different tables or passages of the source.

Columns and labels:
[1] = molecular target: T1, CD3 naturally expressed on Jurkat cells (human, UniProt P07766 23-207); test: FACS
[2] = molecular target: T1, CD3 naturally expressed on Jurkat cells; test: FACS; remark: listed apart in the source

T1 sequence (P07766 23-207): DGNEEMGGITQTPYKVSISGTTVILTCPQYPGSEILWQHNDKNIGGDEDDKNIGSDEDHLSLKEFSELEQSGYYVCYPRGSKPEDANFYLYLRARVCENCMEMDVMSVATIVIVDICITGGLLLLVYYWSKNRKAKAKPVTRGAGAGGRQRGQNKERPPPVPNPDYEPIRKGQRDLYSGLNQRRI

EC50 [1]	EC50 [2]	Binder
172 nM		QP372337241461 (antibody) chain 1: MEFGLSWLFLVAILKGVQCQVQLVQSGAEVKKPGASVKVSCKASGYTFTSYIMHWVRQAPGQGLEWMGYINPYNDGTKYNEKFKGRVTMTRDTSTSTVYMELSSLRSEDTAVYYCARLGFTTRNAMDYWGQGTLVTVSSASTKGPSVFPLAPSSKSTSGGTAALGCLVKDYFPEPVTVSWNSGALTSGVHTFPAVLQSSGLYSLSSVVTVPSSSLGTQTYICNVNHKPSNTKVDKKVEPKSCGGGGSGGGGSGGGGSEVQLLESGGGLVQPGGSLKLSCAASGFTFNTYAMNWVRQAPGKGLEWVARIRSKYNNYATYYADSVKDRFTISRDDSKNTAYLQMNNLKTEDTAVYYCVRHGNFGNSYVSWFAYWGQGTLVTVSSGGGGSGGGGSGGGGSESKYGPPCPPCPAPEFLGGPSVFLFPPKPKDTLMISRTPEVTCVVVDVSQEDPEVQFNWYVDGVEVHNAKTKPREEQFNSTYRVVSVLTVLHQDWLNGKEYKCKVSNKGLPSSIEKTISKAKGQPREPQVYTLPPSQEEMTKNQVSLSCAVKGFYPSDIAVEWESNGQPENNYKTTPPVLDSDGSFFLVSRLTVDKSRWQEGNVFSCSVMHEALHNHYTQKSLSLSLGGSSDYKDDDDK chain 2: not shown chain 3: not shown
	34 nM	QP091037493746 (bispecific antibody) chain 1: not shown chain 2: not shown chain 3: QVQLVQSGAEVKKPGASVKVSCKASGYTFTSYIMHWVRQAPGQGLEWMGYINPYNDGTKYNEKFKGRVTMTRDTSTSTVYMELSSLRSEDTAVYYCARLGFTTRNAMDYWGQGTLVTVSSASTKGPSVFPLAPSSKSTSGGTAALGCLVKDYFPEPVTVSWNSGALTSGVHTFPAVLQSSGLYSLSSVVTVPSSSLGTQTYICNVNHKPSNTKVDKKVEPKSC
133 nM		QP374437481461 (antibody) chain 1: not shown chain 2: MEFGLSWLFLVAILKGVQCQVQLVQSGAEVKKPGASVKVSCKASGYTFTSYIMHWVRQAPGQGLEWMGYINPYNDGTKYNEKFKGRVTMTRDTSTSTVYMELSSLRSEDTAVYYCARLGFTTRNAMDYWGQGTLVTVSSASTKGPSVFPLAPSSKSTSGGTAALGCLVKDYFPEPVTVSWNSGALTSGVHTFPAVLQSSGLYSLSSVVTVPSSSLGTQTYICNVNHKPSNTKVDKKVEPKSCESKYGPPCPPCPAPEFLGGPSVFLFPPKPKDTLMISRTPEVTCVVVDVSQEDPEVQFNWYVDGVEVHNAKTKPREEQFNSTYRVVSVLTVLHQDWLNGKEYKCKVSNKGLPSSIEKTISKAKGQPREPQVYTLPPSQEEMTKNQVSLSCAVKGFYPSDIAVEWESNGQPENNYKTTPPVLDSDGSFFLVSRLTVDKSRWQEGNVFSCSVMHEALHNHYTQKSLSLSLGGSSDYKDDDDK chain 3: not shown

The remaining lines, values behind:

Binder	EC50 [1]	EC50 [2]
QP090837493746 (bispecific antibody) chain 1: not shown chain 2: not shown chain 3: QVQLVQSGAEVKKPGASVKVSCKASGYTFTSYIMHWVRQAPGQGLEWMGYINPYNDGTKYNEKFKGRVTMTRDTSTSTVYMELSSLRSEDTAVYYCARLGFTTRNAMDYWGQGTLVTVSSASTKGPSVFPLAPSSKSTSGGTAALGCLVKDYFPEPVTVSWNSGALTSGVHTFPAVLQSSGLYSLSSVVTVPSSSLGTQTYICNVNHKPSNTKVDKKVEPKSC		64.3 nM
QP090937493746 (bispecific antibody) chain 1: not shown chain 2: not shown chain 3: QVQLVQSGAEVKKPGASVKVSCKASGYTFTSYIMHWVRQAPGQGLEWMGYINPYNDGTKYNEKFKGRVTMTRDTSTSTVYMELSSLRSEDTAVYYCARLGFTTRNAMDYWGQGTLVTVSSASTKGPSVFPLAPSSKSTSGGTAALGCLVKDYFPEPVTVSWNSGALTSGVHTFPAVLQSSGLYSLSSVVTVPSSSLGTQTYICNVNHKPSNTKVDKKVEPKSC		21.9 nM
